In patent publication US12467929:
One block for each substance: values may come before it.

Columns and labels:
[1] = molecular target: recombinant UBE3A protein (Homo sapiens (Human)) (UniProt Q05086); assay: 3-step Simoa; capture GTX; UBE3A 0.488 ng/ml
[2] = molecular target: recombinant UBE3A protein (Homo sapiens (Human)) (UniProt Q05086); assay: 2-step Simoa; capture GTX; UBE3A 500 ng/ml
[3] = molecular target: recombinant UBE3A protein (Homo sapiens (Human)) (UniProt Q05086); assay: 3-step Simoa; capture GTX; UBE3A 125 ng/ml
[4] = molecular target: recombinant UBE3A protein (Homo sapiens (Human)) (UniProt Q05086); assay: Simoa; capture GTX + helper beads; 3E5 0.1 ug/ml; UBE3A 0.00128 ng/ml
[5] = molecular target: recombinant UBE3A protein (Homo sapiens (Human)) (UniProt Q05086); assay: Simoa; capture GTX, no helper beads; 3E5 0.4 ug/ml; UBE3A 20.0 ng/ml
[6] = molecular target: recombinant UBE3A protein (Homo sapiens (Human)) (UniProt Q05086); assay: Simoa head-to-head, Table 11; capture GTX; UBE3A 0.032 ng/ml
[7] = molecular target: recombinant UBE3A protein (Homo sapiens (Human)) (UniProt Q05086); assay: Simoa head-to-head, Table 11; capture GTX; UBE3A 500 ng/ml
[8] = molecular target: recombinant UBE3A protein (Homo sapiens (Human)) (UniProt Q05086); assay: Simoa; capture GTX; 3E5 0.1 ug/ml; UBE3A 0.00640 ng/ml
[9] = molecular target: recombinant UBE3A protein (Homo sapiens (Human)) (UniProt Q05086); assay: Simoa; capture GTX, no helper beads; 3E5 0.1 ug/ml; UBE3A 0.00128 ng/ml
[10] = molecular target: recombinant UBE3A protein (Homo sapiens (Human)) (UniProt Q05086); assay: Simoa; capture GTX + helper beads; 3E5 0.1 ug/ml; UBE3A 0.800 ng/ml
[11] = molecular target: recombinant UBE3A protein (Homo sapiens (Human)) (UniProt Q05086); assay: Simoa; capture GTX; 3E5 0.2 ug/ml; UBE3A 0.00640 ng/ml
[12] = molecular target: recombinant UBE3A protein (Homo sapiens (Human)) (UniProt Q05086); assay: Simoa; capture GTX + helper beads; 3E5 0.1 ug/ml; UBE3A 0.00640 ng/ml
[13] = molecular target: recombinant UBE3A protein (Homo sapiens (Human)) (UniProt Q05086); assay: Simoa head-to-head, Table 10; capture MS 2F6; UBE3A 100 ng/ml
[14] = molecular target: recombinant UBE3A protein (Homo sapiens (Human)) (UniProt Q05086); assay: Simoa; capture GTX + helper beads; 3E5 0.4 ug/ml; UBE3A 20.0 ng/ml
[15] = molecular target: recombinant UBE3A protein (Homo sapiens (Human)) (UniProt Q05086); assay: Simoa; capture GTX, no helper beads; 3E5 0.2 ug/ml; UBE3A 4.00 ng/ml
[16] = molecular target: recombinant UBE3A protein (Homo sapiens (Human)) (UniProt Q05086); assay: Simoa; capture GTX + helper beads; 3E5 0.1 ug/ml; UBE3A 4.00 ng/ml
[17] = molecular target: recombinant UBE3A protein (Homo sapiens (Human)) (UniProt Q05086); assay: Simoa; capture GTX; SBG 100 pm; UBE3A 0.00128 ng/ml
[18] = molecular target: recombinant UBE3A protein (Homo sapiens (Human)) (UniProt Q05086); assay: Simoa; capture GTX + helper beads; 3E5 0.2 ug/ml; UBE3A 0.800 ng/ml
[19] = molecular target: recombinant UBE3A protein (Homo sapiens (Human)) (UniProt Q05086); assay: Simoa; capture GTX; 3E5 0.1 ug/ml; UBE3A 4.00 ng/ml
[20] = molecular target: recombinant UBE3A protein (Homo sapiens (Human)) (UniProt Q05086); assay: Simoa; capture GTX; 3E5 0.8 ug/ml; UBE3A 20.0 ng/ml

Chain of UniProt Q05086 (Q05086 whole entry): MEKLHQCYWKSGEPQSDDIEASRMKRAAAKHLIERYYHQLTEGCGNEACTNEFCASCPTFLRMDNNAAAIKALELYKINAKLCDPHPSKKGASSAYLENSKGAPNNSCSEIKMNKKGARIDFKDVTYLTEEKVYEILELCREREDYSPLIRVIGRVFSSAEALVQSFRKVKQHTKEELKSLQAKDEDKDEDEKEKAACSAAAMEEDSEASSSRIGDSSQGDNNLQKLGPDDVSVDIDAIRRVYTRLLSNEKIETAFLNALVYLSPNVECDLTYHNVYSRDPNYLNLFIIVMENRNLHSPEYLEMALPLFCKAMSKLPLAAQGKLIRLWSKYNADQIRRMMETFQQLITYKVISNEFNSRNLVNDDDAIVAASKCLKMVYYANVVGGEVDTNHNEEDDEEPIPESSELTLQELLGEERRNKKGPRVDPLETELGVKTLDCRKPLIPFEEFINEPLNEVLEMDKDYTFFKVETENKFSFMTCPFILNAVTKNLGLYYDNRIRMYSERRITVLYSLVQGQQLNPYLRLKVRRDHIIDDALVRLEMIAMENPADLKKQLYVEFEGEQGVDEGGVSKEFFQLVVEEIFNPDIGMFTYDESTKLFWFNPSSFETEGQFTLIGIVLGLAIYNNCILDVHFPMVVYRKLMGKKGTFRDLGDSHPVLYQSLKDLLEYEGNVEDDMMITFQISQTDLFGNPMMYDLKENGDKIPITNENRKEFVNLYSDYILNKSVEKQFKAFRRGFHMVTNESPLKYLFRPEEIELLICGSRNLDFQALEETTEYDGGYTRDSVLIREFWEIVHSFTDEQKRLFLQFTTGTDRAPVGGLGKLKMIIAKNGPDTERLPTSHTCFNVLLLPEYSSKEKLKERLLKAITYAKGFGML

AEB1 [1]: 0.0023 | AEB2 [1]: 0.0026 | Ave AEB [1]: 0.0025 | Signal to Background [1]: 0.759 | AEB1 [2]: 0.303 | AEB2 [2]: 0.308 | Ave AEB [2]: 0.305 | Signal to Background [2]: 93.4 | AEB1 [3]: 0.122 | AEB2 [3]: 0.122 | Ave AEB [3]: 0.122 | Signal to Background [3]: 55.8
Substance: NB500-240 (Novus) (antibody)

AEB1 [4]: 0.0065 | AEB2 [4]: 0.0083 | Average AEB [4]: 0.0074 | Signal to Background [4]: 1.29 | AEB1 [5]: 6.8 | AEB2 [5]: 6.32 | Average AEB [5]: 6.56 | Signal to Background [5]: 336 | AEB1 [6]: 0.0127 | AEB2 [6]: 0.0142 | Ave AEB [6]: 0.0135 | Signal to Background [6]: 1.65 | AEB1 [7]: 9.97 | AEB2 [7]: 10.3 | Ave AEB [7]: 10.1 | Signal to Background [7]: 1240 | AEB1 [8]: 0.0251 | AEB2 [8]: 0.0238 | AEB3 [8]: 0.0256 | Average AEB [8]: 0.0248 | Signal to Background [8]: 1.29 | AEB1 [9]: 0.005 | AEB2 [9]: 0.0075 | Average AEB [9]: 0.0062 | Signal to Background [9]: 1.09 | AEB1 [10]: 0.167 | AEB2 [10]: 0.166 | Average AEB [10]: 0.166 | Signal to Background [10]: 29 | AEB1 [11]: 0.0421 | AEB2 [11]: 0.0466 | AEB3 [11]: 0.0433 | Average AEB [11]: 0.044 | Signal to Background [11]: 1.12 | AEB1 [12]: 0.0065 | AEB2 [12]: 0.0045 | Average AEB [12]: 0.0055 | Signal to Background [12]: 0.962 | AEB1 [13]: 2.71 | AEB2 [13]: 2.88 | Ave AEB [13]: 2.8 | Signal to Background [13]: 207 | AEB1 [14]: 4.41 | AEB2 [14]: 6.45 | Average AEB [14]: 5.43 | Signal to Background [14]: 278 | AEB1 [15]: 0.878 | AEB2 [15]: 0.851 | Average AEB [15]: 0.864 | Signal to Background [15]: 89.4 | AEB1 [16]: 0.639 | AEB2 [16]: 0.606 | Average AEB [16]: 0.623 | Signal to Background [16]: 109 | AEB1 [17]: 0.0082 | AEB2 [17]: 0.0092 | AEB3 [17]: 0.0096 | Average AEB [17]: 0.009 | Signal to Background [17]: 1.07 | AEB1 [18]: 0.252 | AEB2 [18]: 0.261 | Average AEB [18]: 0.257 | Signal to Background [18]: 26.5 | AEB1 [19]: 0.848 | AEB2 [19]: 0.891 | AEB3 [19]: 0.878 | Average AEB [19]: 0.873 | Signal to Background [19]: 45.3 | AEB1 [20]: 9.16 | AEB2 [20]: 10.3 | AEB3 [20]: 9.37 | Average AEB [20]: 9.62 | Signal to Background [20]: 78.5
Substance: anti-UBE3A antibody 3E5 (SAB1404508-100 ug, Millipore-Sigma)
